Assay results as given in patent US20120094909A1 (Bristol-Myers Squibb, published 2012).
Values joined by “and” are separate entries in the source; they are usually repeats but may differ in a detail not shown here. Equal entries are not always repeated. Where two headings read alike, the source gives them in different places. One block for each binder: values may come before it.

How the values were obtained:
[1] = target: T1, rhesus serum albumin (rhesus, UniProt Q28522 17-600); assay: SPR (Biacore), albumin captured on chip, SABA in flow; n = 4
T1 construct: also called RhSA
Method: (§1) The kinetics of selected SABA clones purified from HTPP and/or midscaled material described in Examples 5A and 5B were determined by capturing the respective serum albumin (HSA/RhSA/MuSA) on the surface of a Biasensor CMS chip and flowing a concentration series of SABAs over both the reference flow cell and the captured albumins. In addition, binding to albumin was carried out under various pH conditions ranging from pH 5.5 to pH 7.4.

[2] = target: T1, rhesus serum albumin; assay: SPR (Biacore), albumin captured on chip, SABA in flow
Method: as §1

[3] = target: T2, human serum albumin (human, UniProt P02768 25-609); assay: as above
T2 construct: also called HSA
Method: as §1

[4] = target: T2, human serum albumin; assay: SPR (Biacore), albumin captured on chip, SABA in flow; n = 9
Method: as §1

[5] = target: T2, human serum albumin; assay: SPR (Biacore), albumin captured on chip, SABA in flow; n = 4
Method: as §1

[6] = target: T3, human PCSK9 (proprotein convertase subtilisin kexin type 9) (human, UniProt Q8NBP7 31-692); assay: ITC, 37 C
T3 construct: immobilized directly (ProteOn), biotinylated (Octet) or in solution, according to the assay; also called hPCSK9; PCSK9-AF647 (labelled form)

[7] = target: T3, human PCSK9 (proprotein convertase …); assay: PCSK9:EGFA FRET, competitor EGFA peptide
[8] = target: T3, human PCSK9 (proprotein convertase …); assay: BLI (Octet Red), 37 C
[9] = target: T3, human PCSK9 (proprotein convertase …); assay: SPR (ProteOn), 25 C
[10] = target: T3, human PCSK9 (proprotein convertase …); assay: cell-based or functional assay
[11] = target: T3, human PCSK9 (proprotein convertase …); assay: SPR (ProteOn), PCSK9 immobilized directly, 25 C
Method: (§2) The binding characteristics were characterized by Surface Plasmon Resonance (SPR). […] This allowed kinetic determination in the absence of regeneration. […] Evaluation of the kinetic parameters was performed using the Langmuir interaction model and constant parameter fitting with the ProteOn Manager software.

[12] = target: T3, human PCSK9 (proprotein convertase …); assay: cell-based or functional assay; remark: listed apart in the source
[13] = target: T4, human PCSK9 (proprotein convertase subtilisin kexin type 9) (human, UniProt Q8NBP7 31-692); assay: cell-based or functional assay; remark: listed apart in the source
[14] = target: T5, cynomolgus monkey PCSK9 (cynomolgus monkey, UniProt A0A7N9D9N8 150-747); assay: SPR ProteOn, 25 C
Method: as §2

[15] = target: T4, human PCSK9 (proprotein convertase …); assay: SPR ProteOn, 25 C
Method: as §2

[16] = target: T5, cynomolgus monkey PCSK9; assay: FRET, competitor EGFA peptide
Excerpt: (§3) Table 11 summarizes the overall data from these three FRET assays.

[17] = target: T4, human PCSK9 (proprotein convertase …); assay: FRET, competitor EGFA peptide
Excerpt: as §3

[18] = target: T5, cynomolgus monkey PCSK9; assay: SPR ProteOn, PCSK9 immobilized, 25 C
Method: as §2

[19] = target: T4, human PCSK9 (proprotein convertase …); assay: SPR ProteOn, PCSK9 immobilized, 25 C
Method: as §2

[20] = target: T4, human PCSK9 (proprotein convertase …); assay: FRET, competitor ATI000972
Excerpt: as §3

[21] = target: T4, human PCSK9 (proprotein convertase …); assay: BLI, biotinylated hPCSK9 on sensor tips
[22] = target: T4, human PCSK9 (proprotein convertase …); assay: FRET direct binding, anti-his6 antibody
Excerpt: as §3

[23] = target: T4, human PCSK9 (proprotein convertase …); assay: ITC, 37 C
Method: Solution phase binding was measured in 25 mM HEPES, pH 7.41, 150 mM NaCl at 37° C.

[24] = target: T4, human PCSK9 (proprotein convertase …); assay: SPR Biacore, ATI-1081 captured on anti-His antibody, hPCSK9 in flow, 25 C
Method: The binding characteristics were characterized by Surface Plasmon Resonance (SPR). […] […] Duplicate experiments for PRD460 were performed on different days. Kinetic determinations were performed at 25° C. Evaluation of the kinetic parameters was performed using the 1:1 Binding algorithm on the BIACORE® Evaluation software.

[25] = target: T6, cynomolgus monkey PCSK9 (cynomolgus monkey, UniProt A0A7N9D9N8 150-747); assay: SPR ProteOn, 25 C
T6 construct: also called cyno PCSK9; cPCSK9
Method: as §2

[26] = target: T6, cynomolgus monkey PCSK9; assay: FRET, competitor EGFA peptide
Excerpt: as §3

[27] = target: T4, human PCSK9 (proprotein convertase …); assay: KinExA, solution phase
Method: Due to technical limitations, the lowest concentration of Adnectins that could be tested was 1 nM.

[28] = target: T6, cynomolgus monkey PCSK9; assay: SPR ProteOn, PCSK9 immobilized, 25 C
Method: as §2

[29] = target: T2, human serum albumin; assay: SPR (Biacore), albumin captured on chip, SABA in flow; n = 6
Method: as §1

[30] = target: T7, murine serum albumin (mouse, UniProt P07724 25-608); assay: kinetic analysis and direct binding ELISA (Table 18, FIG. 27)
T7 construct: also called MuSA; mouse serum albumin

[31] = target: rat serum albumin (rat, UniProt P02770 25-608); assay: as above
[32] = target: T8, human serum albumin (human, UniProt P02768 25-609); assay: kinetic analysis, HBS-P buffer
T8 construct: also called HSA

[33] = target: T9, rhesus serum albumin (rhesus, UniProt Q28522 17-600); assay: kinetic analysis, HBS-P buffer
T9 construct: also called RhSA

B1: SABA1.1 (designed binder)
chain: MGVSDVPRDLEVVAATPTSLLISWHSYYEQNSYYRITYGETGGNSPVQEFTVPYSQTTATISGLKPGVDYTITVYAVYGSKYYYPISINYRTEIDKPSQHHHHHH
notes: also called clone 1318H04
Kd [1]: 778 nM
koff [2]: 0.00545 s⁻¹
koff [3]: 0.000457 s⁻¹
Kd [4]: 47.2 nM

B3: 1459D05 (designed binder)
chain: MGVSDVPRDLEVVAATPTSLLISWPPPSHGYGYYRITYGETGGNSPVQEFTVPPGKGTATISGLKPGVDYTITVYAVEYPYKHSGYYHRPISINYRTEIDKPSQHHHHHH
notes: also called ATI000891; ATI-891
Kd [6]: 26 nM
EC50 [7]: 4 nM
Kd [8]: 14.4 nM
Kd [9]: 1.58 nM
LDLR Depletion (% inhibition at 75 nM) [10]: 66.8%
LDLR Depletion EC50 [10]: > 200 nM
Kd [11]: 1.6 nM
DiI-LDL uptake in HepG2 cells, EC50 [12]: 190 nM
percentage of PCSK9 inhibition at 75 nM [12]: 66.8%

B4: 2011H05 (designed binder)
chain: MGVSDVPRDLEVVAATPTSLLISWVPSSHAYGYYRITYGETGGNSPVQEFTVPVGVGTATISGLKPGVDYTITVYAVEYAFEGAGYYHRPISINYRTEIDKPSQHHHHHH
notes: Anti-PCSK9 Adnectin, His6-tagged; also called ATI001091
LDLR Depletion EC50 [13]: 12 nM
Kd [14]: 23.1 nM
Kd [15]: 0.08 nM
EC50 [16]: 17.2 nM
EC50 [17]: 2.7 nM
IC50 [17]: 2.7 nM
Kd [18]: 23.1 nM
koff [18]: 0.0044 s⁻¹
kon [18]: 190000 M⁻¹ s⁻¹
Kd [19]: 0.079 nM
koff [19]: 9.76e-06 s⁻¹
kon [19]: 118000 M⁻¹ s⁻¹
IC50 [20]: 1.4 nM
Kd [21]: 0.293 nM
koff [21]: 8.2e-05 s⁻¹
kon [21]: 286000 M⁻¹ s⁻¹
EC50 [22]: 2 nM

B5: 2013E01 (designed binder)
chain: MGVSDVPRDLEVVAATPTSLLISWVPPSDDYGYYRITYGETGGNSPVQEFTVPIGKGTATISGLKPGVDYTITVYAVEFPWPHAGYYHRPISINYRTEIDKPSQHHHHHH
notes: Anti-PCSK9 Adnectin, His6-tagged, unmodified (not PEGylated); also called ATI001081
Ka [23]: 7.1e+08 M⁻¹
Kd [23]: 1.4 nM
Stoichiometry (N) [23]: 0.926
ΔH [23]: -26.6 kcal/mol
ΔS [23]: -45.4 cal/mol °C
Kd [24]: 6.7 nM
koff [24]: 0.000245 s⁻¹
kon [24]: 36500 M⁻¹ s⁻¹
LDLR Depletion EC50 [13]: 10 nM
Kd [15]: 0.29 nM
Kd [25]: 8.1 nM
EC50 [17]: 1.6 nM
IC50 [17]: 1.6 nM
EC50 [26]: 12.5 nM
Kd [27]: 0.0695 nM
Kd [28]: 8.1 nM
koff [28]: 0.00177 s⁻¹
kon [28]: 219000 M⁻¹ s⁻¹
IC50 [20]: 1.8 nM
koff [21]: 0.000837 s⁻¹ and 0.000349 s⁻¹
kon [21]: 546000 M⁻¹ s⁻¹ and 829000 M⁻¹ s⁻¹
EC50 [22]: 0.9 nM

B6: 2012A04 (designed binder)
chain: MGVSDVPRDLEVVAATPTSLLISWRPPSNGHGYYRITYGETGGNSPVQEFTVPVNEGTATISGLKPGVDYTITVYAVEFPFKWSGYYHRPISINYRTEIDKPSQHHHHHH
notes: Anti-PCSK9 Adnectin, His6-tagged
LDLR Depletion EC50 [13]: 12 nM
Kd [15]: 0.25 nM
Kd [25]: 24.3 nM
EC50 [17]: 2.1 nM
IC50 [17]: 2.1 nM
EC50 [26]: 70.3 nM
Kd [19]: 0.251 nM
koff [19]: 6.47e-05 s⁻¹
kon [19]: 259000 M⁻¹ s⁻¹
Kd [28]: 24.3 nM
koff [28]: 0.00475 s⁻¹
kon [28]: 195000 M⁻¹ s⁻¹
IC50 [20]: 1.2 nM
EC50 [22]: 1.4 nM

B7: SABA2.1 (designed binder)
chain: MGVSDVPRDLEVVAATPTSLLISWPKYDKTGHYYRITYGETGGNSPVQEFTVPTRQTTATISGLKPGVDYTITVYAVSKDDYYPHEHRPISINYRTEIDKPSQHHHHHH
Kd [29]: 33.8 nM
Kd [2]: 63.6 nM
koff [2]: 0.000442 s⁻¹
koff [3]: 0.000171 s⁻¹

Continued, values first:

Kd [5]: 412 nM
Kd [2]: > 1000 nM
koff [2]: 0.00383 s⁻¹
koff [3]: 0.000782 s⁻¹
B2: SABA4.1 (designed binder)
chain: MGVSDVPRDLEMVAATPTSLLISWEDDSYYSRYYRITYGETGGNSPVQEFTVPSDLYTATISGLKPGVDYTITVYAVTYDVTDLIMHEPISINYRTEIDKPSQHHHHHH
notes: Carries a scaffold mutation; SABA5 is the scaffold-perfect version

binding result [30]: no binding (tested: up to 1 µM)
binding result [31]: no binding (tested: up to 1 µM)
fold increase in affinity at 37 C against 25 C [32]: ~2 fold
affinity at 37 C relative to 25 C [33]: 0.5 fold
B8: SABA1.2 (designed binder)
chain: MGVSDVPRDLEVVAATPTSLLISWHSYYEQNSYYRITYGETGGNSPVQEFTVPYSQTTATISGLKPGVDYTITVYAVYGSKYYYPISINYRTEIEDEDEDEDED
notes: core 1 10Fn3 with (ED)5 extension
